{"source": "patent US20240383984A1", "about": "(Genentech, published 2024)", "binders": {"B1": {"name": "15G8 (antibody, mouse IgG2a, V domains shown)", "VH": "EVQLQQSGPELVKPGASVKMSCKASGYTFTNYVIHWMKQKPGQGLEWIGYISPYNDYTKYNEKFEGKATLTSDKSSNTAYMELSSLTSEDSAVYYCARRDYYGSSDYWGQGTTLTVSS", "VL": "QIVLTQSPAIMSASPGEKVTMTCSASSSVDYMHWYQQKSGTSPKKWIYDTSKLASGVPARFSGSGSGTSYSLTIGSMEAEDAATYYCQQWSSNPPTFGGGTKLEIK", "notes": "mouse mAb, Campaign C; recombinant murine IgG2a for SPR; also called mAb 15G8"}, "B2": {"name": "1G7.v85/38E4.v1 TDB (bispecific antibody, V domains shown)", "VH 1": "EVQLVESGPGLVKPSETLSLTCTVSGFSLTRFGVHWVRQPPGKGLEWLGVIWRGGSTDYNAAFVSRLTISKDNSKNQVSLKLSSVTAADTAVYYCSNHYYGSSDYALDNWGQGTLVTVSS", "VL 1": "DIQMTQSPSSLSASVGDRVTITCKASQDVRNLVVWFQQKPGKAPKLLIYSGSYRYSGVPSRFSGSGSGTDFTLTISSLQPEDFATYYCQQHYSPPYTFGQGTKVEIK", "VH 2": "EVQLVQSGAEVKKPGASVKVSCKASGFTFTSYYIHWVRQAPGQGLEWIGWIYPENDNTKYNEKFKDRVTITADTSTSTAYLELSSLRSEDTAVYYCARDGYSRYYFDYWGQGTLVTVSS", "VL 2": "DIVMTQSPDSLAVSLGERATINCKSSQSLLNSRTRKNYLAWYQQKPGQSPKLLIYWTSTRKSGVPDRFSGSGSGTDFTLTISSLQAEDVAVYYCKQSFILRTFGQGTKVEIK", "notes": "knob-into-hole TDB; also called 1G7.v85 TDB; 1G7.v85 (TDB format)"}, "B3": {"name": "17B1 (antibody, mouse IgG2a, V domains shown)", "VH": "QVQLQQSGPELVRPGVSVKISCKGSGYTFTHYAMHWVKQSHTKSLEWIGMISSSSGNTNFNQKFMDKATMTVDKSSTTAYLELARLTFGDSAIYYCARWSYYALFDYWGQGTTVTVSS", "VL": "ENVLTQSPAIMSASPGEKVTMTCSADSSVDYIHWYQQKSNTSPKLWIYDTSKLASGVPGRFSGSGSGNSYSLTISSMEAEDFATYYCFQGSGYPLTFGSGTKLELK", "notes": "mouse mAb, Campaign C; recombinant murine IgG2a for SPR"}}, "key": {"[1]": {"molecular_target": "T1, cynomolgus E11 domain protein (cynomolgus monkey)", "T1 construct": "whole entry named; also called cyno E11", "T1 chain": "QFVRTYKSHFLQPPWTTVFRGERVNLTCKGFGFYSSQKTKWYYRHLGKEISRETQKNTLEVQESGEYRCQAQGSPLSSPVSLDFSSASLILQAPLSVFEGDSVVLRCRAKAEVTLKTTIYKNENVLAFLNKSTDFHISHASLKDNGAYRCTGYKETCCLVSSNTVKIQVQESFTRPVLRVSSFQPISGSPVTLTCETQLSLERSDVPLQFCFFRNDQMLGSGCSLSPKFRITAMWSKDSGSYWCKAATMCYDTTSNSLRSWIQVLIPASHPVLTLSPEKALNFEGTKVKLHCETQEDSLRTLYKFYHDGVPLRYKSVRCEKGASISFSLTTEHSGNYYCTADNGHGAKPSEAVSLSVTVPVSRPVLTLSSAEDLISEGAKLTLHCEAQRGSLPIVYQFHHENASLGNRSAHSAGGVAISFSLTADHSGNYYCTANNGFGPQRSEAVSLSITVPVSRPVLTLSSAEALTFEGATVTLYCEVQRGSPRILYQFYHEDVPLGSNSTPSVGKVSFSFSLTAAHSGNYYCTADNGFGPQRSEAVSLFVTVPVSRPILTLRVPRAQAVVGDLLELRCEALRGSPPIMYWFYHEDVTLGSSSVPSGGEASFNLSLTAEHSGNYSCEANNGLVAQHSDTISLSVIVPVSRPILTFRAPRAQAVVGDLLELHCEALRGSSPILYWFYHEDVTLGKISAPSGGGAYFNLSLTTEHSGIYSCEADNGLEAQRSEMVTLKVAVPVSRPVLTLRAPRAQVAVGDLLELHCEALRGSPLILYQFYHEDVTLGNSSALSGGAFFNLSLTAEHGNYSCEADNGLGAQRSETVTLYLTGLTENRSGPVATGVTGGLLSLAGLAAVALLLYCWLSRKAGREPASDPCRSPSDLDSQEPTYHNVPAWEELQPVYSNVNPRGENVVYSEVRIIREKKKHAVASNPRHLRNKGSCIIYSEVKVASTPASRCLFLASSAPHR", "test": "SPR, IgG capture", "procedure": "Briefly, test antibodies were captured on flow cells 2, 3 or 4 with flow cell 1 as a reference on a protein A Series S CM5 chip (GE Life Sciences, Piscataway, NJ). An FcRH5 protein fragment was used as analyte, with a flow rate of 30 μl/minute. Between injections the capture surface was regenerated by a 30 second injection of 10 mM glycine, pH 1.5 at a flow rate of 10 μl/minute. Interactions were assessed at 25° C. in 10 mM HEPES pH 7.4, 150 mM NaCl, 0.05% Tween 20 (HBSP). Reference data from the reference flow cell and from injection of buffer alone was subtracted prior to kinetic analysis. Kinetic information was calculated by fitting data to a 1:1 binding model. Reference subtraction and data fitting were performed using BIAevaluation software (GE Life Sciences, Piscataway, NJ)."}, "293-FcRH5-DEL": {"molecular_target": "T2, 293-FcRH5-DEL (human, UniProt Q96RD9)", "T2 construct": "domain 9 deletion, expressed on 293 cells", "T2 sequence (receptor, looked up)": "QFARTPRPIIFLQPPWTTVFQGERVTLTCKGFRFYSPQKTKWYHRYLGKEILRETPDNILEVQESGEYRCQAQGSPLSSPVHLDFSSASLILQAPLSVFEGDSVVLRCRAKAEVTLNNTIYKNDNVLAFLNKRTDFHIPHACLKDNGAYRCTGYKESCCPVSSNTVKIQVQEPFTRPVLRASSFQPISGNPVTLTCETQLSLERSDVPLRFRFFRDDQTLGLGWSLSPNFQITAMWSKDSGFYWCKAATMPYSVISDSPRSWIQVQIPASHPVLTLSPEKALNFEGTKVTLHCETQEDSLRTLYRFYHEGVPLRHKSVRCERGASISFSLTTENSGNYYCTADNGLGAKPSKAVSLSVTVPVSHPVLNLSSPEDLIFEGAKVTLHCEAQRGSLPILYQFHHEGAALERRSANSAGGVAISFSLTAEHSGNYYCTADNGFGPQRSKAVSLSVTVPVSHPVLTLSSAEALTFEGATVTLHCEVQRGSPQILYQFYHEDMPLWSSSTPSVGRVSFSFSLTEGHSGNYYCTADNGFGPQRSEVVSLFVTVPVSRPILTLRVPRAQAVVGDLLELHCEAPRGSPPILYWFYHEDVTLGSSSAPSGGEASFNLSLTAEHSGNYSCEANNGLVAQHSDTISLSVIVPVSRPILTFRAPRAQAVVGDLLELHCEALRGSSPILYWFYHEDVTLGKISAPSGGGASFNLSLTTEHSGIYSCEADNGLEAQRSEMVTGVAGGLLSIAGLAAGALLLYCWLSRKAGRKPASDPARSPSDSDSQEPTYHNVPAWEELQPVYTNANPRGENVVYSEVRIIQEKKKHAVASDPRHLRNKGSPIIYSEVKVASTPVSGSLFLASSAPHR", "test": "flow cytometry on 293 cells with domain 9-deleted FcRH5, PE-labelled secondary"}, "[2]": {"molecular_target": "T3, cynomolgus FcRH5 protein fragment (soluble) (cynomolgus monkey)", "T3 construct": "whole entry named; also called Cyno FcRH5 (BIACORE analyte)", "T3 chain": "T1 chain", "test": "SPR (BIACORE), TDB captured as ligand, Cyno FcRH5 as analyte, 25 °C, 1:1 binding model"}, "[3]": {"molecular_target": "T4, cynomolgus FcRH5 (full-length, on cells) (cynomolgus monkey)", "T4 construct": "also called SVT2-Cyno-FcRH5; cyno FcRH5", "T4 chain": "T1 chain", "test": "FACS, SVT2 cells"}}}
{"binder": "B1", "values": [{"measurement": "KD difference between human and cynomolgus E11 domains", "setting": "[1]", "value": "~20", "unit": "fold"}]}
{"binder": "B2", "values": [{"measurement": "binding result", "setting": "293-FcRH5-DEL", "value": "no binding"}, {"measurement": "Kd", "setting": "[2]", "value": 6.76, "unit": "nM"}, {"measurement": "koff", "setting": "[2]", "value": 0.000847, "unit": "s⁻¹"}, {"measurement": "kon", "setting": "[2]", "value": 125000, "unit": "M⁻¹ s⁻¹"}]}
{"binder": "B3", "values": [{"measurement": "binding result", "setting": "[3]", "value": "binds"}]}
